This is an account of results in FireProtDB (doi:10.1021/bi9901228).

As usually defined, the Tm is the temperature at which the thermal transition is half complete.

B1: Lysozyme C, P61626 (parent)
chain: MKALIVLGLVLLSVTVQGKVFERCELARTLKRLGMDGYRGISLANWMCLAKWESGYNTRATNYNAGDRSTDYGIFQINSRYWCNDGKTPGAVNACHLSCSALLQDNIADAVACAKRVVRDPQGIRAWVAWRNRCQNRDVRQYVQGCGV

In the first data set the parent is B1. To be noted: Homo sapiens; pH 2.51; Thermal; DSC; glycine 0.05 M; reversible: yes; structure 1LZ1; whole UniProt chain shown.
MKALIVLGLVLLSVTVQGKVFERCELARTLKRLGMDGYRGISLANWMCLAKWESGYNTRATNYNAGDRATDYGIFQINSRYWCNDGKTPGAVNACHLSCSALLQDNIADAVACAKRVVRDPQGIRAWVAWRNRCQNRDVRQYVQGCGV [S69A]: the Tm was determined as 61 °C, the “heat capacity change of unfolding” value is 1.48 kcal/mol/K, the “unfolding enthalpy (calorimetric)” value was 106 kcal/mol and the “unfolding enthalpy (van 't Hoff)” value is 113 kcal/mol.

The data set is the same for the next values; noted with them: Homo sapiens; pH 2.69; Thermal; DSC; glycine 0.05 M; reversible: yes; structure 1LZ1; whole UniProt chain shown.
For MKALIVLGLVLLSVTVQGKVFERCELARTLKRLGMDGYRGISLANWMCLAKWESGYNTRATNYNAGDRATDYGIFQINSRYWCNDGKTPGAVNACHLSCSALLQDNIADAVACAKRVVRDPQGIRAWVAWRNRCQNRDVRQYVQGCGV [S69A], the Tm stood at 64.2 °C, the “heat capacity change of unfolding” value stood at 1.43 kcal/mol/K, the “unfolding enthalpy (calorimetric)” value is 111 kcal/mol and the “unfolding enthalpy (van 't Hoff)” value was 118 kcal/mol.

For the variant MKALIVLGLVLLSVTVQGKVFERCELARTLKRLGMDGYRGISLANWMCLAKWESGYNTRATNYNAGDRSTDYGIFQINSRYWCNDGKTPGAVNACHLACSALLQDNIADAVACAKRVVRDPQGIRAWVAWRNRCQNRDVRQYVQGCGV [S98A], the Tm stood at 66.2 °C, the “heat capacity change of unfolding” value was determined as 1.34 kcal/mol/K, the “unfolding enthalpy (calorimetric)” value turned out to be 119 kcal/mol and the “unfolding enthalpy (van 't Hoff)” value worked out at 126 kcal/mol.

Staying with this data set, now noted: Homo sapiens; pH 2.7; Thermal; DSC; glycine 0.05 M; reversible: yes; structure 1LZ1; whole UniProt chain shown.
Regarding MKALIVLGLVLLSVTVQGKVFERCELARTLKRLGMDGYRGISLANWMCLAKWESGYNTRATNYNAGDRATDYGIFQINSRYWCNDGKTPGAVNACHLSCSALLQDNIADAVACAKRVVRDPQGIRAWVAWRNRCQNRDVRQYVQGCGV [S69A], the Tm is 64.2 °C; the “change of melting temperature, mutant - wild type (higher = more stable)” value (“change of melting temperature, mutant” for short) was -0.7 °C; the “heat capacity change of unfolding” value was found to be 1.43 kcal/mol/K; the “unfolding enthalpy (calorimetric)” value was 112 kcal/mol.

Turning to MKALIVLGLVLLSVTVQGKVFERCELARTLKRLGMDGYRGIALANWMCLAKWESGYNTRATNYNAGDRSTDYGIFQINSRYWCNDGKTPGAVNACHLSCSALLQDNIADAVACAKRVVRDPQGIRAWVAWRNRCQNRDVRQYVQGCGV [S42A], the Tm was 63.3 °C; the “change of melting temperature, mutant” value is -1.6 °C; the “heat capacity change of unfolding” value was 1.51 kcal/mol/K; the “unfolding enthalpy (calorimetric)” value was found to be 110 kcal/mol.

For the variant MKALIVLGLVLLSVTVQGKVFERCELARTLKRLGMDGYRGISLANWMCLAKWESGYNTRATNYNAGDRSTDYGIFQINSRYWCNDGKTPGAVNACHLACSALLQDNIADAVACAKRVVRDPQGIRAWVAWRNRCQNRDVRQYVQGCGV [S98A], the Tm came to 66.3 °C; the “change of melting temperature, mutant” value turned out to be 1.4 °C; the “heat capacity change of unfolding” value worked out at 1.43 kcal/mol/K; the “unfolding enthalpy (calorimetric)” value worked out at 116 kcal/mol.

Still in this data set, the particulars now being: Homo sapiens; pH 2.86; Thermal; DSC; glycine 0.05 M; reversible: yes; structure 1LZ1; whole UniProt chain shown.
On to MKALIVLGLVLLSVTVQGKVFERCELARTLKRLGMDGYRGISLANWMCLAKWESGYNTRATNYNAGDRATDYGIFQINSRYWCNDGKTPGAVNACHLSCSALLQDNIADAVACAKRVVRDPQGIRAWVAWRNRCQNRDVRQYVQGCGV [S69A], for which the Tm came out at 66.7 °C, the “heat capacity change of unfolding” value was determined as 1.55 kcal/mol/K, the “unfolding enthalpy (calorimetric)” value was found to be 115 kcal/mol and the “unfolding enthalpy (van 't Hoff)” value came out at 121 kcal/mol.

Staying with this data set, now noted: Homo sapiens; pH 3.11; Thermal; DSC; glycine 0.05 M; reversible: yes; structure 1LZ1; whole UniProt chain shown.
Turning to MKALIVLGLVLLSVTVQGKVFERCELARTLKRLGMDGYRGISLANWMCLAKWESGYNTRATNYNAGDRATDYGIFQINSRYWCNDGKTPGAVNACHLSCSALLQDNIADAVACAKRVVRDPQGIRAWVAWRNRCQNRDVRQYVQGCGV [S69A], the Tm came out at 70.8 °C, the “heat capacity change of unfolding” value amounted to 1.36 kcal/mol/K, the “unfolding enthalpy (calorimetric)” value turned out to be 120 kcal/mol and the “unfolding enthalpy (van 't Hoff)” value amounted to 126 kcal/mol.

In the case of MKALIVLGLVLLSVTVQGKVFERCELARTLKRLGMDGYRGISLANWMCLAKWESGYNTRATNYNAGDRSTDYGIFQINSRYWCNDGKTPGAVNACHLACSALLQDNIADAVACAKRVVRDPQGIRAWVAWRNRCQNRDVRQYVQGCGV [S98A], the Tm worked out at 73.6 °C, the “heat capacity change of unfolding” value is 1.39 kcal/mol/K, the “unfolding enthalpy (calorimetric)” value was 129 kcal/mol and the “unfolding enthalpy (van 't Hoff)” value was found to be 135 kcal/mol.

Still in this data set, the particulars now being: Homo sapiens; pH 2.46; Thermal; DSC; glycine 0.05 M; reversible: yes; structure 1LZ1; whole UniProt chain shown.
Take MKALIVLGLVLLSVTVQGKVFERCELARTLKRLGMDGYRGIALANWMCLAKWESGYNTRATNYNAGDRSTDYGIFQINSRYWCNDGKTPGAVNACHLSCSALLQDNIADAVACAKRVVRDPQGIRAWVAWRNRCQNRDVRQYVQGCGV [S42A]: the Tm was 58.8 °C, the “heat capacity change of unfolding” value was 1.46 kcal/mol/K, the “unfolding enthalpy (calorimetric)” value was 101 kcal/mol and the “unfolding enthalpy (van 't Hoff)” value was found to be 105 kcal/mol.

Staying with this data set, now noted: Homo sapiens; pH 2.66; Thermal; DSC; glycine 0.05 M; reversible: yes; structure 1LZ1; whole UniProt chain shown.
With MKALIVLGLVLLSVTVQGKVFERCELARTLKRLGMDGYRGIALANWMCLAKWESGYNTRATNYNAGDRSTDYGIFQINSRYWCNDGKTPGAVNACHLSCSALLQDNIADAVACAKRVVRDPQGIRAWVAWRNRCQNRDVRQYVQGCGV [S42A], the midpoint of thermal melting (Tm) worked out at 62.5 °C, the “heat capacity change of unfolding” value was found to be 1.67 kcal/mol/K, the “unfolding enthalpy (calorimetric)” value turned out to be 106 kcal/mol and the “unfolding enthalpy (van 't Hoff)” value was determined as 111 kcal/mol.

The data set is the same for the next values; noted with them: Homo sapiens; pH 2.82; Thermal; DSC; glycine 0.05 M; reversible: yes; structure 1LZ1; whole UniProt chain shown.
On to MKALIVLGLVLLSVTVQGKVFERCELARTLKRLGMDGYRGIALANWMCLAKWESGYNTRATNYNAGDRSTDYGIFQINSRYWCNDGKTPGAVNACHLSCSALLQDNIADAVACAKRVVRDPQGIRAWVAWRNRCQNRDVRQYVQGCGV [S42A], for which the Tm is 65.7 °C, the “heat capacity change of unfolding” value stood at 1.55 kcal/mol/K, the “unfolding enthalpy (calorimetric)” value amounted to 112 kcal/mol and the “unfolding enthalpy (van 't Hoff)” value was found to be 117 kcal/mol.

Staying with this data set, now noted: Homo sapiens; pH 3.09; Thermal; DSC; glycine 0.05 M; reversible: yes; structure 1LZ1; whole UniProt chain shown.
For MKALIVLGLVLLSVTVQGKVFERCELARTLKRLGMDGYRGIALANWMCLAKWESGYNTRATNYNAGDRSTDYGIFQINSRYWCNDGKTPGAVNACHLSCSALLQDNIADAVACAKRVVRDPQGIRAWVAWRNRCQNRDVRQYVQGCGV [S42A], the Tm stood at 70.3 °C, the “heat capacity change of unfolding” value came to 1.41 kcal/mol/K, the “unfolding enthalpy (calorimetric)” value came out at 118 kcal/mol and the “unfolding enthalpy (van 't Hoff)” value came out at 123 kcal/mol.

The same data set, now with this note: Homo sapiens; pH 2.5; Thermal; DSC; glycine 0.05 M; reversible: yes; structure 1LZ1; whole UniProt chain shown.
On to MKALIVLGLVLLSVTVQGKVFERCELARTLKRLGMDGYRGISLANWMCLAKWESGYNTRATNYNAGDRSTDYGIFQINSRYWCNDGKTPGAVNACHLACSALLQDNIADAVACAKRVVRDPQGIRAWVAWRNRCQNRDVRQYVQGCGV [S98A], for which the midpoint of thermal melting (Tm) amounted to 62.7 °C, the “heat capacity change of unfolding” value is 1.41 kcal/mol/K, the “unfolding enthalpy (calorimetric)” value is 113 kcal/mol and the “unfolding enthalpy (van 't Hoff)” value was 120 kcal/mol.

The data set is the same for the next values; noted with them: Homo sapiens; pH 2.85; Thermal; DSC; glycine 0.05 M; reversible: yes; structure 1LZ1; whole UniProt chain shown.
Turning to MKALIVLGLVLLSVTVQGKVFERCELARTLKRLGMDGYRGISLANWMCLAKWESGYNTRATNYNAGDRSTDYGIFQINSRYWCNDGKTPGAVNACHLACSALLQDNIADAVACAKRVVRDPQGIRAWVAWRNRCQNRDVRQYVQGCGV [S98A], the Tm is 69.1 °C, the “heat capacity change of unfolding” value stood at 1.34 kcal/mol/K, the “unfolding enthalpy (calorimetric)” value amounted to 122 kcal/mol and the “unfolding enthalpy (van 't Hoff)” value is 129 kcal/mol.
